# According to US20240279318A1 (NANJING LEGEND BIOTECH, published 2024):
# Read-outs that look alike come from different tables or passages of the source.
# Columns and labels:
# [1] = target: ARNTL peptide/HLA-A*02:01 complex (recombinant) (human); experiment: SPR
# [2] = target: ATG9A peptide/HLA-A*02:01 complex (recombinant) (human); experiment: SPR
# [3] = target: BRCA2 peptide/HLA-A*02:01 complex (recombinant) (human); experiment: SPR
# [4] = target: CDC14A peptide/HLA-A*02:01 complex (recombinant) (human); experiment: SPR
# [5] = target: NR2E1 peptide/HLA-A*02:01 complex (recombinant) (human); experiment: SPR
# [6] = target: OR1I1 peptide/HLA-A*02:01 complex (recombinant) (human); experiment: SPR
# [7] = target: OR51B6 peptide/HLA-A*02:01 complex (recombinant) (human); experiment: SPR
# [8] = target: OR6C1 peptide/HLA-A*02:01 complex (recombinant) (human); experiment: SPR
# [9] = target: PTP4A1 peptide/HLA-A*02:01 complex (recombinant) (human); experiment: SPR
# [10] = target: RP1 peptide/HLA-A*02:01 complex (recombinant) (human, UniProt P16213 21-119 (Pongo pygmaeus entry)); experiment: SPR
# [11] = target: RCL1 peptide/HLA-A*02:01 complex (recombinant) (human, UniProt P16213 21-119 (Pongo pygmaeus entry)); experiment: SPR
# [12] = target: ZNF566 peptide/HLA-A*02:01 complex (recombinant) (human); experiment: SPR
# [13] = target: T1, AFP158/HLA-A*02:01 complex (human); experiment: SPR; vs AS170036 VL1VH1
# T1 construct: biotinylated on the BSP by BirA for ELISA and panning; also called biotinylated AFP158/HLA-A*02:01 complex; Bio-AFP158
# [14] = target: T1, AFP158/HLA-A*02:01 complex; experiment: SPR; vs AS170036 VL1VH1; remark: listed apart in the source
# [15] = target: T1, AFP158/HLA-A*02:01 complex; experiment: SPR, crude scFv captured;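 also: Peptide–MHC complex flowed at several concentrations over sensorchip-captured scFv, Kd derived from on- and off-rates obtained from the association and dissociation curves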
# Description: The experiment was carried out as follows. The crude scFv protein were captured onto the sensorchip. Different concentrations (320, 160, 40 nM) of AFP158/HLA-A*02:01 complex flowed over the sensorchip surface, and were allowed to bind the antibody fragment for 100 s followed by injection of the running buffer to allow dissociation of the complex. On-rate (kd) and off-rate (kd) were calculated based on association and dissociation curve, and were used to estimate the equilibrium dissociation constant (KD).
Binder,binding result [1],binding result [2],binding result [3],binding result [4],binding result [5],binding result [6],binding result [7],binding result [8],binding result [9],binding result [10],binding result [11],binding result [12],Affinity increase [13] [fold],Affinity increase [14] [fold],Kd [15] [nM]
AS170036 VL1VH1-VHG56F (scFv) scFv: QSALTQPRSVSGSPGQSVTISCAGTSSDVGSENYVSWYQQHPGKAPKLMIYQVNKRASGVPDRFSGSKSGNTASLTISGLQAEDEADYYCASYRSSDHNIVFGGGTKLTVLGGGGSGGGGSGGGGSEVQLVESGGGLVQPGGSLRLSCAASGFTFSSYAMSWVRQAPGKGLEWVSTINSGTFSPYYADSVKGRFTISRDNSKNTLYLQMNSLRAEDTAVYYCAKNFFDGSWFLGPPAMDYWGQGTLVTVSSHHHHHH,no binding,no binding,no binding,no binding,no binding,no binding,no binding,no binding,no binding,no binding,no binding,no binding,> 2,2.3,98
AS170036 VL1VH1-VLE32W (scFv) scFv: QSALTQPRSVSGSPGQSVTISCAGTSSDVGSWNYVSWYQQHPGKAPKLMIYQVNKRASGVPDRFSGSKSGNTASLTISGLQAEDEADYYCASYRSSDHNIVFGGGTKLTVLGGGGSGGGGSGGGGSEVQLVESGGGLVQPGGSLRLSCAASGFTFSSYAMSWVRQAPGKGLEWVSTINSGTGSPYYADSVKGRFTISRDNSKNTLYLQMNSLRAEDTAVYYCAKNFFDGSWFLGPPAMDYWGQGTLVTVSSHHHHHH,no binding,no binding,no binding,no binding,no binding,no binding,no binding,no binding,no binding,no binding,no binding,no binding,> 2,–,–
AS170036 VL1VH1-VHS57Q (scFv) scFv: QSALTQPRSVSGSPGQSVTISCAGTSSDVGSENYVSWYQQHPGKAPKLMIYQVNKRASGVPDRFSGSKSGNTASLTISGLQAEDEADYYCASYRSSDHNIVFGGGTKLTVLGGGGSGGGGSGGGGSEVQLVESGGGLVQPGGSLRLSCAASGFTFSSYAMSWVRQAPGKGLEWVSTINSGTGQPYYADSVKGRFTISRDNSKNTLYLQMNSLRAEDTAVYYCAKNFFDGSWFLGPPAMDYWGQGTLVTVSSHHHHHH,no binding,no binding,no binding,no binding,no binding,no binding,no binding,no binding,no binding,no binding,no binding,no binding,> 2,2.4,100
AS170036 VL1VH1-VHG108N (scFv) scFv: QSALTQPRSVSGSPGQSVTISCAGTSSDVGSENYVSWYQQHPGKAPKLMIYQVNKRASGVPDRFSGSKSGNTASLTISGLQAEDEADYYCASYRSSDHNIVFGGGTKLTVLGGGGSGGGGSGGGGSEVQLVESGGGLVQPGGSLRLSCAASGFTFSSYAMSWVRQAPGKGLEWVSTINSGTGSPYYADSVKGRFTISRDNSKNTLYLQMNSLRAEDTAVYYCAKNFFDGSWFLNPPAMDYWGQGTLVTVSSHHHHHH,no binding,no binding,no binding,no binding,no binding,no binding,no binding,no binding,no binding,no binding,no binding,no binding,> 2,2,140
AS170036 VL1VH1-VHG108M (scFv) scFv: QSALTQPRSVSGSPGQSVTISCAGTSSDVGSENYVSWYQQHPGKAPKLMIYQVNKRASGVPDRFSGSKSGNTASLTISGLQAEDEADYYCASYRSSDHNIVFGGGTKLTVLGGGGSGGGGSGGGGSEVQLVESGGGLVQPGGSLRLSCAASGFTFSSYAMSWVRQAPGKGLEWVSTINSGTGSPYYADSVKGRFTISRDNSKNTLYLQMNSLRAEDTAVYYCAKNFFDGSWFLMPPAMDYWGQGTLVTVSSHHHHHH,no binding,no binding,no binding,no binding,no binding,no binding,no binding,no binding,no binding,no binding,no binding,no binding,> 2,4.7,58
AS170036 VL1VH1-VLH98T (scFv) scFv: QSALTQPRSVSGSPGQSVTISCAGTSSDVGSENYVSWYQQHPGKAPKLMIYQVNKRASGVPDRFSGSKSGNTASLTISGLQAEDEADYYCASYRSSDTNIVFGGGTKLTVLGGGGSGGGGSGGGGSEVQLVESGGGLVQPGGSLRLSCAASGFTFSSYAMSWVRQAPGKGLEWVSTINSGTGSPYYADSVKGRFTISRDNSKNTLYLQMNSLRAEDTAVYYCAKNFFDGSWFLGPPAMDYWGQGTLVTVSSHHHHHH,no binding,no binding,no binding,no binding,no binding,no binding,no binding,no binding,no binding,no binding,no binding,no binding,> 2,–,–
AS170036 VL1VH1-VLH98P (scFv) scFv: QSALTQPRSVSGSPGQSVTISCAGTSSDVGSENYVSWYQQHPGKAPKLMIYQVNKRASGVPDRFSGSKSGNTASLTISGLQAEDEADYYCASYRSSDPNIVFGGGTKLTVLGGGGSGGGGSGGGGSEVQLVESGGGLVQPGGSLRLSCAASGFTFSSYAMSWVRQAPGKGLEWVSTINSGTGSPYYADSVKGRFTISRDNSKNTLYLQMNSLRAEDTAVYYCAKNFFDGSWFLGPPAMDYWGQGTLVTVSSHHHHHH,no binding,no binding,no binding,no binding,no binding,no binding,no binding,no binding,no binding,no binding,no binding,no binding,> 2,–,–
AS170036 VL1VH1-VLH98A (scFv) scFv: QSALTQPRSVSGSPGQSVTISCAGTSSDVGSENYVSWYQQHPGKAPKLMIYQVNKRASGVPDRFSGSKSGNTASLTISGLQAEDEADYYCASYRSSDANIVFGGGTKLTVLGGGGSGGGGSGGGGSEVQLVESGGGLVQPGGSLRLSCAASGFTFSSYAMSWVRQAPGKGLEWVSTINSGTGSPYYADSVKGRFTISRDNSKNTLYLQMNSLRAEDTAVYYCAKNFFDGSWFLGPPAMDYWGQGTLVTVSSHHHHHH,no binding,no binding,no binding,no binding,no binding,no binding,no binding,no binding,no binding,no binding,no binding,no binding,> 2,–,–
AS170036 VL1VH1-VHG108E (scFv) scFv: QSALTQPRSVSGSPGQSVTISCAGTSSDVGSENYVSWYQQHPGKAPKLMIYQVNKRASGVPDRFSGSKSGNTASLTISGLQAEDEADYYCASYRSSDHNIVFGGGTKLTVLGGGGSGGGGSGGGGSEVQLVESGGGLVQPGGSLRLSCAASGFTFSSYAMSWVRQAPGKGLEWVSTINSGTGSPYYADSVKGRFTISRDNSKNTLYLQMNSLRAEDTAVYYCAKNFFDGSWFLEPPAMDYWGQGTLVTVSSHHHHHH,no binding,no binding,no binding,no binding,no binding,no binding,no binding,no binding,no binding,no binding,no binding,no binding,> 2,4.1,56
